2 substances from US20140072650A1, “GELATIN EXTRACT MADE FROM SKATE RAY SKIN AND ANTIHYPERTENSIVE COMPOSITION HAVING PEPTIDE ISOLATED FROM EXTRACT AS ACTIVE INGREDIENT” (PUKYONG NATIONAL UNIVERSITY INDUSTRY-UNIVERSITY CO, priority 2012, published 2014) can be followed below.

The target in this experiment is angiotensin converting enzyme (Homo sapiens, UniProt P12821). In words: ACE inhibition activity measurement (IC50). Format: biochemical. The note with it: FIG. 6; for ACE inhibition: isolated peptides. How it is done: The inventors of the present invention measured the ACE inhibition activities based on the process concentration with respect to the second hydrolysate containing a lower molecular weight among the gelatin extracts of the skins of a skate ray obtained from the above embodiments so as to develop a new hypertension therapy medicine which could be quickly absorbed by a human body and has a good effect, and the measurements were conducted in the method of measuring IC50 concentration which could inhibit 50% of the angiotensin converting enzyme in accordance with the angiotensin converting enzyme inhibition measurement method.
Chain of angiotensin converting enzyme (P12821 30-1306, species assumed): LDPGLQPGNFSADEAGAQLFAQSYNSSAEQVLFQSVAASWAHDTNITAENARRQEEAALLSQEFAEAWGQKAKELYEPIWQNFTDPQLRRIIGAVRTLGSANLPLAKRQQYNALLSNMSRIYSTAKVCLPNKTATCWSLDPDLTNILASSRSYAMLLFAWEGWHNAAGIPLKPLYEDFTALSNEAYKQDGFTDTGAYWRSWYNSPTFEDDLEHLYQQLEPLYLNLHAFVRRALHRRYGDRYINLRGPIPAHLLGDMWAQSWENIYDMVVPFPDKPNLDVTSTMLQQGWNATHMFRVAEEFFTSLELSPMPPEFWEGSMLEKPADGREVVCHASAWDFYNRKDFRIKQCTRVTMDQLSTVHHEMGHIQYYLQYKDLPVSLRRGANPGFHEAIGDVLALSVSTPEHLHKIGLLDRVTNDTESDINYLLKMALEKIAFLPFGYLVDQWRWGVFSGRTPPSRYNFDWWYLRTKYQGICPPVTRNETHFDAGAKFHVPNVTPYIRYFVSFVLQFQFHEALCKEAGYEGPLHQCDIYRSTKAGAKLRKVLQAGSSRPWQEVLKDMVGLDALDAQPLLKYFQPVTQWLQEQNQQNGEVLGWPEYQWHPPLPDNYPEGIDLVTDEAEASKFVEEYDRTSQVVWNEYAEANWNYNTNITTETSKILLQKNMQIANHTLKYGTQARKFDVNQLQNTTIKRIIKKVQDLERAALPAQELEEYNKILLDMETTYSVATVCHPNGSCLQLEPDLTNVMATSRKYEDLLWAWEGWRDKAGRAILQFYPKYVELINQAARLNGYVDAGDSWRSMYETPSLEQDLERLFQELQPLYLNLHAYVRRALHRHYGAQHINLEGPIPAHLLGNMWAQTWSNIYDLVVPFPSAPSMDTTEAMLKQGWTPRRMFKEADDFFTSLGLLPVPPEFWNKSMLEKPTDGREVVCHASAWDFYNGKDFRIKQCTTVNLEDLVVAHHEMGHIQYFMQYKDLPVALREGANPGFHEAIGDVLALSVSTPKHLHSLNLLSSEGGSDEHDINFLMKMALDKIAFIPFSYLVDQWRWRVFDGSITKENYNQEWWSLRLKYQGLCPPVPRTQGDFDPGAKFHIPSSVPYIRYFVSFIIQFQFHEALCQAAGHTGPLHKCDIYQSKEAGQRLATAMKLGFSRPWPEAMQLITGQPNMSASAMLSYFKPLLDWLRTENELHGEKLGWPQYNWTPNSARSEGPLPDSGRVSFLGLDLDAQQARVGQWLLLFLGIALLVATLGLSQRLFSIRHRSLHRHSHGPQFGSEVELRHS
The inventors of the present invention isolated two active peptides by way of FPLC (Fast Protein Liquid Chromatography) with respect to the second hydrolysate so as to isolate the functional peptides having an antihypertensive activity contained in the second hydrolysate of the gelatin extract obtained from the skins of a skate ray. As a result of the analysis on the base sequence of the peptide, it was confirmed that the peptide had the following base sequence. In addition, the ACE inhibition (IC50) was checked in the earlier explained method so as to check the antihypertensive activity with respect to the peptides.

Regarding “LGPLGHQ [SP2, peptide (720 Da) isolated by FPLC from the second hydrolysate]”, the ACE inhibition result is listed as “have the ACE inhibition”.
Consider “MVGSAPGVL [SPI, peptide (829 Da) isolated by FPLC from the second hydrolysate]”, for which the “antihypertensive activity (ACE inhibition) compared with the other peptide” value is given as “higher antihypertensive activity as compared to the SP2” and the ACE inhibition entry is recorded as “have the ACE inhibition”.
